Assay results from article PMC8808280 (Nature, 2021).

Target: T1, Receptor-associated protein (RAP) (human, UniProt P30533 35-353)
T1 sequence (looked up): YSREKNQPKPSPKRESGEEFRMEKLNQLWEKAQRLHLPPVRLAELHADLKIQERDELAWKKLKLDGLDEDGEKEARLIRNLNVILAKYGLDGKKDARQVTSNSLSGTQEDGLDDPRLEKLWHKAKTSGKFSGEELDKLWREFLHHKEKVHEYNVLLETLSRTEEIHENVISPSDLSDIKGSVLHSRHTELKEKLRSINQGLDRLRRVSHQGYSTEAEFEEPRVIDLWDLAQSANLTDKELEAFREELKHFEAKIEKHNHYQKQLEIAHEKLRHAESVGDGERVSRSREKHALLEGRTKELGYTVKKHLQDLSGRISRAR
Test: BLI

B1: ApoER2 isoform 1 LBD-Fc fusion protein (Fc fusion)
chain: not shown
B1: binds.
